Here are results for 2 substances from patent publication US20050143287A1.

Common to all, as to assay: cell-based or functional assay
For assay [1], the target named is chimpanzee prokineticin receptor 2 (PKR2) (chimpanzee (Pan troglodytes)).
Assay [2] concerns the target rhesus monkey prokineticin receptor 1 (PKR1) (rhesus monkey).
Assay [3] concerns the target squirrel monkey prokineticin receptor 2 (PKR2) (squirrel monkey).

Take “recombinant human PK2 (prokineticin 2) (from UniProt Q9HC23 28-129) (ligand)”: the calcium mobilization (aequorin luminescence) in transiently transfected CHO cells in assay [1] and in assay [2] was 10 nM each time. In the case of “recombinant human PK1 (prokineticin 1) (from UniProt P58294 20-101) (ligand)”, the calcium mobilization (aequorin luminescence) in transiently transfected CHO cells in assay [3] was 10 nM.
